Test in all cases: cell-based or functional assay
For experiment [1], the target named is wildtype SARS-COV-2 spike protein on pseudotyped virus (SARS-CoV-2) (UniProt P0DTC2).
Experiment [2] has as its target SARS-COV-2 spike protein (pSARS-COV-2-SΔ19) on HIV-1 pseudotyped particles (SARS-COV-2) (UniProt P0DTC2).
Experiment [3] concerns the target SARS-CoV-2 spike protein (wild type, pSARS-COV-2-SΔ19) on HIV-1 pseudotyped particles (SARS-CoV-2) (UniProt P0DTC2).
The target in experiment [4] is wildtype SARS-CoV-2 spike protein (pseudovirus) (SARS-CoV-2) (UniProt P0DTC2).

In experiment [1], C121 (antibody) had a neutralization IC50 of 0.0051 µg/mL and a neutralization IC90 of 0.0198 µg/mL.

For the substance C135 (antibody), in experiment [1], the neutralization IC50 was found to be 0.00859 µg/mL and the neutralization IC90 is 0.0406 µg/mL.

As for C144 (antibody), in experiment [2], the IC50 amounted to 0.00286 µg/mL and the IC90 was found to be 0.0405 µg/mL. In experiment [3], this substance had a Neutralization activity IC50 of 0.00286 µg/mL and a Neutralization activity IC90 of 0.0405 µg/mL. Besides, in experiment [1], the neutralization IC50 was found to be 0.00374 µg/mL and the neutralization IC90 is 0.0159 µg/mL. In addition, in experiment [4], the IC50 neutralization worked out at 0.0037 µg/mL and the IC90 neutralization came out at 0.0159 µg/mL.

One may read the IC50 as the concentration needed to halve the response being measured. Lower therefore signals higher potency. Usually IC90 stands for the concentration at which the effect reaches the 90% level.

Values taken from patent US20240218057A1.
